Here are results for one molecule from CN112500484A (MEDX TRANSLATIONAL MEDICINE CO LTD, dated 2021).

The target in the experiment is T1, 人TROP2蛋白C端合成多肽 Arg299-Leu323, 裸肽 (not coupled to KLH) (human).
T1 construct: also called 抗原多肽
T1 peptide: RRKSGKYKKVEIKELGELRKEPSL
In words: indirect ELISA screen of transiently expressed antibodies. On the technique in general: ELISA stands for enzyme-linked immunosorbent assay.

B1: MJ1-1抗体 (rabbit anti-human TROP2 monoclonal antibody) (antibody, V domains shown)
VH: QSVEESGGRLVTPGTPLTLTCTVSGIDLSSDAIFWVRQAPGEGLKYIGFIHPAGVTYYAAWARGRFTISRTSTTVDLKMTRLTTEDTATYFCGRYFGYASIDIWGPGTLVTVSS
VL: AQVLTQTPSSTSAAVGGTVTINCQSSQNVYDKNQLSWFQQKPGQPPKLLIYKASTLASGVPSRFSGSGSGTQFTLTISGVECDDAATYYCAGVYTGNIYTFGGGTEVVVKG
notes: also called MJ1-1单克隆抗体; 抗TROP2抗体
Take B1: the binding result is reported as “binds”.
